The target of assay [1] is T1, O2-AA.
T1 chain: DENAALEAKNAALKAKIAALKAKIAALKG
Description: two-hybrid library CCmax.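 Further: natural log of median RNA to DNA barcode read ratio; higher means stronger binding.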

The target in assay [2] is T2, O3-AA.
T2 chain: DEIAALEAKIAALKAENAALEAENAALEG
Nature of the assay: two-hybrid library CCmax.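 Further: natural log of median RNA to DNA barcode read ratio; higher means stronger binding.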 The settings on record: mean of both orientations.

The target of assay [3] is T3, O11-AA.
T3 chain: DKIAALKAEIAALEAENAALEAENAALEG
Nature of the assay: two-hybrid library CCmax.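 Further: natural log of median RNA to DNA barcode read ratio; higher means stronger binding.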

For assay [4], the target named is T4, O13-AA.
T4 chain: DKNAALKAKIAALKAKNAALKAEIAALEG
Description: two-hybrid library CCmax.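 Further: natural log of median RNA to DNA barcode read ratio; higher means stronger binding.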

Assay [5] concerns the target T5, P9-AA.
T5 chain: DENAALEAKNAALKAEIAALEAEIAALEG
Description: two-hybrid library CCmax. The settings on record: mean of both orientations.

In assay [6] the target is T6, O8-AA.
T6 chain: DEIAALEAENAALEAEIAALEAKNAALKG
Nature of the assay: two-hybrid library CCmax. Particulars: mean of both orientations.

In assay [7] the target is T7, O7-AA.
T7 chain: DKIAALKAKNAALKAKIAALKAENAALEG
Description: two-hybrid library CCmax. Particulars: mean of both orientations.

Assay [8] addresses T8, O6-AA.
T8 chain: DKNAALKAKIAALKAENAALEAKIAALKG
Nature of the assay: two-hybrid library CCmax. Particulars: mean of both orientations.

Assay [9] concerns the target T9, O14-AA.
T9 chain: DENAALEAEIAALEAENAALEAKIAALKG
Nature of the assay: two-hybrid library CCmax.

Assay [10] addresses T10, O5-AA.
T10 chain: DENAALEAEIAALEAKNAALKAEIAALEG
Description: two-hybrid library CCmax. Particulars: mean of both orientations.

Assay [11] addresses T11, P10-AA.
T11 chain: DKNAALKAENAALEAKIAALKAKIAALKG
Nature of the assay: two-hybrid library CCmax. Particulars: mean of both orientations.

For assay [12], the target named is T12, O4-AA.
T12 chain: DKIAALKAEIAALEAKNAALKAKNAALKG
Nature of the assay: two-hybrid library CCmax. The settings on record: mean of both orientations.

Assay [13] addresses T13, 4H968-bN.
T13 chain: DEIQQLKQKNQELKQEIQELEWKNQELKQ
Description: two-hybrid library CCNG1.

For assay [14], the target named is T14, 4H918-bN.
T14 chain: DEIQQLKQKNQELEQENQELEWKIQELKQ
Nature of the assay: two-hybrid library CCNG1.

Assay [15] concerns the target T15, O14-bA.
T15 chain: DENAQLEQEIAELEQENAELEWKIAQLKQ
Description: two-hybrid library CCNG1.

Assay [16] concerns the target T16, 4H953-bN.
T16 chain: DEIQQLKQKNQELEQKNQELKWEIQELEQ
Nature of the assay: two-hybrid library CCNG1.

The target of assay [17] is T17, 4H967-bN.
T17 chain: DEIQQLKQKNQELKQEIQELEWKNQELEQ
Description: two-hybrid library CCNG1.

Assay [18] addresses T18, 4H918-bA.
T18 chain: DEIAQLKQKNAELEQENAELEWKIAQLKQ
Nature of the assay: two-hybrid library CCNG1.

For assay [19], the target named is T19, 4H780-bA.
T19 chain: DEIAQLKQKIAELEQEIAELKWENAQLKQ
Description: two-hybrid library CCNG1.

Assay [20] has as its target T20, 4H953-bA.
T20 chain: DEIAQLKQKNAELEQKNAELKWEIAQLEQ
Nature of the assay: two-hybrid library CCNG1.

Assay [21] addresses T21, 4H754-bA.
T21 chain: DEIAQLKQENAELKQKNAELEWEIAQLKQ
Nature of the assay: two-hybrid library CCNG1.

Assay [22] concerns the target T22, 4H683-bA.
T22 chain: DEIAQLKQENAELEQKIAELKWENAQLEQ
Nature of the assay: two-hybrid library CCNG1.

In assay [23] the target is T23, 4H457-bA.
T23 chain: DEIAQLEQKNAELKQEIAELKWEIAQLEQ
Description: two-hybrid library CCNG1.

In assay [24] the target is T24, 4H855-bA.
T24 chain: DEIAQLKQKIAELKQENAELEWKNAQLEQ
Nature of the assay: two-hybrid library CCNG1.

The target of assay [25] is T25, 4H968-bA.
T25 chain: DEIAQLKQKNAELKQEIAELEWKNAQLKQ
Nature of the assay: two-hybrid library CCNG1.

The target of assay [26] is T26, 4H575-bA.
T26 chain: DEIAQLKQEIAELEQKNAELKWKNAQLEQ
Nature of the assay: two-hybrid library CCNG1.

The target of assay [27] is T27, 4H797-bA.
T27 chain: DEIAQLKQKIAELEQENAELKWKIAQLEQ
Nature of the assay: two-hybrid library CCNG1.

The target of assay [28] is T28, 4H584-bH.
T28 chain: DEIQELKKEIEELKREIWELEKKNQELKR
Description: two-hybrid library CCNG1.

Assay [29] concerns the target T29, 4H3041-bH.
T29 chain: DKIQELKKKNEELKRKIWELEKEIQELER
Nature of the assay: two-hybrid library CCNG1.

For assay [30], the target named is T30, 4H796-bH.
T30 chain: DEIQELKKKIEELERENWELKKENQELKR
Description: two-hybrid library CCNG1.

The target of assay [31] is T31, 4H717-bA.
T31 chain: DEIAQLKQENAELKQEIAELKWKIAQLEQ
Description: two-hybrid library CCNG1.

For assay [32], the target named is T32, 4H349-bH.
T32 chain: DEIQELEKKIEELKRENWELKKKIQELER
Nature of the assay: two-hybrid library CCNG1.

Assay [33] concerns the target T33, 4H949-bH.
T33 chain: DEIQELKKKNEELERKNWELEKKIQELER
Nature of the assay: two-hybrid library CCNG1.

The target of assay [34] is T34, 4H3297-bH.
T34 chain: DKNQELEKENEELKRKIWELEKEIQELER
Description: two-hybrid library CCNG1.

Assay [35] addresses T35, 4H56-bH.
T35 chain: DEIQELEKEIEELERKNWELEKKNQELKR
Nature of the assay: two-hybrid library CCNG1.

The target of assay [36] is T36, 4H2859-bH.
T36 chain: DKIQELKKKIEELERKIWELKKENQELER
Nature of the assay: two-hybrid library CCNG1.

For assay [37], the target named is T37, 4H3364-bH.
T37 chain: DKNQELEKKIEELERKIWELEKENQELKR
Nature of the assay: two-hybrid library CCNG1.

Assay [38] deals with T38, 4H3974-bA.
T38 chain: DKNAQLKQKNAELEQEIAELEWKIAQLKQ
Nature of the assay: two-hybrid library CCNG1.

Assay [39] has as its target T39, 4H264-bH.
T39 chain: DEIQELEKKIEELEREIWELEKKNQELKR
Description: two-hybrid library CCNG1.

Assay [40] has as its target T40, 4H3381-bH.
T40 chain: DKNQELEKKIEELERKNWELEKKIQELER
Nature of the assay: two-hybrid library CCNG1.

Assay [41] addresses T41, 4H2931-bH.
T41 chain: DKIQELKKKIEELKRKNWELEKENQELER
Nature of the assay: two-hybrid library CCNG1.

Assay [42] addresses T42, 4H2760-bH.
T42 chain: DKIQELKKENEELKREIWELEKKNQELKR
Nature of the assay: two-hybrid library CCNG1.

Assay [43] concerns the target T43, 4H2585-bH.
T43 chain: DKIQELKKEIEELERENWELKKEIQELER
Description: two-hybrid library CCNG1.

Assay [44] concerns the target T44, 4H2518-bH.
T44 chain: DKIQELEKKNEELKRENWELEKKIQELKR
Nature of the assay: two-hybrid library CCNG1.

Assay [45] addresses T45, 4H932-bH.
T45 chain: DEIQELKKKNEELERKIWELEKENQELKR
Nature of the assay: two-hybrid library CCNG1.

Assay [46] addresses T46, 4H730-bH.
T46 chain: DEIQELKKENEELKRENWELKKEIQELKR
Description: two-hybrid library CCNG1.

Assay [47] has as its target T47, P5A-bP.
T47 chain: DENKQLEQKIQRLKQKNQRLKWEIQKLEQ
Nature of the assay: two-hybrid library CCNG1.

The target of assay [48] is T48, P6A-bP.
T48 chain: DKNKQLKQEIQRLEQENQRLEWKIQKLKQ
Description: two-hybrid library CCNG1.

Assay [49] addresses T49, P7A-bP.
T49 chain: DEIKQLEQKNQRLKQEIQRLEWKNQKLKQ
Nature of the assay: two-hybrid library CCNG1.

Assay [50] has as its target T50, P8A-bP.
T50 chain: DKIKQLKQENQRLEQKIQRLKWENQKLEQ
Description: two-hybrid library CCNG1.

Assay [51] deals with T51, P9A-bP.
T51 chain: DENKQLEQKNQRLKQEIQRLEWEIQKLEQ
Nature of the assay: two-hybrid library CCNG1.

Assay [52] addresses T52, P8A-bS.
T52 chain: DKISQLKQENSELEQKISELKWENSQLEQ
Nature of the assay: two-hybrid library CCNG1.

In assay [53] the target is T53, P7A-bS.
T53 chain: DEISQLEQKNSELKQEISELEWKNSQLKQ
Description: two-hybrid library CCNG1.

Assay [54] addresses T54, P6bHq.
T54 chain: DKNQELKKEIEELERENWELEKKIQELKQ
Description: two-hybrid library CCNG1.

Assay [55] deals with T55, P9A-bS.
T55 chain: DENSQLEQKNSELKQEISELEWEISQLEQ
Nature of the assay: two-hybrid library CCNG1.

Assay [56] has as its target T56, P6A-bS.
T56 chain: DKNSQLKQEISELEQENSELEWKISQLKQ
Nature of the assay: two-hybrid library CCNG1.

For assay [57], the target named is T57, P5A-bS.
T57 chain: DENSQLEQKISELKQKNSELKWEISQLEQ
Description: two-hybrid library CCNG1.

Like-named read-outs stand apart in the source and are kept apart here.

Regarding DKIAALKAEIAALEAENAALEAENAALEG [O11-AA], the interaction score is -0.959 in assay [1] (mean of both orientations); -0.899 in assay [2]; -0.752 in assay [3]; -1.08 in assay [4] (mean of both orientations); -1.22 in assay [5]; -1.67 in assay [6]. The interaction score was -0.673 in assay [7]; -0.7 in assay [8]; -1.2 in assay [9] (mean of both orientations); -1.47 in assay [10]; -0.539 in assay [11]; 1.9 in assay [12].

For DEIQQLKQKNQELEQENQELEWKIQELKQ [4H918-bN], the interaction score was -0.218 in assay [13]; -0.715 in assay [14]; -0.665 in [15]; 0.301 in assay [16]; -0.522 in [17].

For DENAALEAKNAALKAKIAALKAKIAALKG [O2-AA], the interaction score is -1.61 in assay [1]; -1.26 in assay [2]; 0.934 in assay [5]; 0.633 in assay [6]; -1.5 in assay [7]; -1.77 in assay [8]. Further, the interaction score in assay [10] is -1.37; in assay [11], 1.33; in assay [12] it was -1.55.

Consider DEIAQLEQKNAELKQEIAELKWEIAQLEQ [4H457-bA], for which the interaction score was -0.845 in assay [18]; -1.18 in [19]; -0.948 in assay [20]; -0.0398 in assay [15]; -1.54 in assay [21]; 0.308 in assay [22]. In addition, the interaction score in [23] is -0.968; in assay [24], -1.04; in assay [25] it was 0.0968; in [26], -1.69; in assay [27], -1.25.

Regarding DENAALEAEIAALEAENAALEAKIAALKG [O14-AA], the interaction score in assay [1] (mean of both orientations) was 0.393; in [2] it was -1.47; in assay [5], -1.61; in [6], -0.992; in assay [7], 1.84; in assay [8], 1.44. For the same molecule, the interaction score is -1.46 in assay [9], 1.3 in [10], -0.458 in assay [11] and -0.13 in [12].

Turning to DKIQELEKKNEELKRENWELEKKIQELKR [4H2518-bH], the interaction score was 0.647 in [28]; 0.765 in assay [29]; 0.388 in assay [30]; -0.768 in assay [31]; -1.75 in assay [32]; 0.12 in [33]. The interaction score in [34] is 0.251; in [35], -1.35; in assay [36], -0.0624; in assay [37], 0.178; in assay [38] it was 0.345; in assay [39], -1.77. Also, the interaction score was 0.567 in assay [40]; -0.584 in assay [41]; -0.186 in assay [42]; 0.0674 in [43]; 1 in assay [44]; 0.604 in assay [45]. This molecule showed an interaction score in assay [46] of 0.0916.

Consider DENKQLEQKIQRLKQKNQRLKWEIQKLEQ [P5A-bP], for which the interaction score in [47] was -1.57; in assay [48], 1.7; in assay [49], -1.06; in assay [50], -0.516; in assay [51], -1.44.

On to DENSQLEQKISELKQKNSELKWEISQLEQ [P5A-bS], for which the interaction score was -1.1 in [52]; -1.3 in [53]; 1.33 in assay [54]; -0.973 in [55]; 0.815 in assay [56]; -0.799 in assay [57].

Regarding DKNAALKAKIAALKAKNAALKAEIAALEG [O13-AA], the interaction score in assay [1] (mean of both orientations) was -1.56; in assay [2], -1.86; in assay [4], -1.69; in assay [5], -1.16; in assay [6], 1.18; in [7] it was -1.54. The interaction score is 1.5 in assay [8]; 2.19 in [9] (mean of both orientations); -0.257 in assay [10]; -1.54 in assay [11]; -1.61 in assay [12].

Values taken from publication PMC10397247.
